The record followed here is paper PMC7496394.

Read-outs that look alike come from different tables or passages of the source.

Data set [1] deals with recombinant and mature MDA1 (Arabidopsis thaliana) (UniProt F4JVI3). Description: SEC.
In data set [2] the target is T1, rMDA1 (mature MDA1) (Arabidopsis thaliana, UniProt F4JVI3 44-493).
T1 sequence: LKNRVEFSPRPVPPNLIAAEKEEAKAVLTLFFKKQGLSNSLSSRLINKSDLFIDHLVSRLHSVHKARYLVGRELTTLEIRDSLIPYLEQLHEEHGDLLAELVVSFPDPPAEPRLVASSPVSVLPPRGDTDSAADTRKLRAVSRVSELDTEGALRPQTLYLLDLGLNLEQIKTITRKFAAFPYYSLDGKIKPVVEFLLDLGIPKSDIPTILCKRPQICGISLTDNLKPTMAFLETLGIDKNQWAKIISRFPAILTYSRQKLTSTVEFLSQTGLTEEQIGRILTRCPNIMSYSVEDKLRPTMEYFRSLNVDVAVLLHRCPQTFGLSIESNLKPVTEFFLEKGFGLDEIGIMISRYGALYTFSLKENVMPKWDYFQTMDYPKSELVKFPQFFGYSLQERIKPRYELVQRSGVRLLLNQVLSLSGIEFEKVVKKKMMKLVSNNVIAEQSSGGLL
Description: EMSA.

Data set [3] deals with T1, rMDA1 (mature MDA1). Description: EMSA. This is another data set of the same source.
Data set [4] deals with T1, rMDA1 (mature MDA1). Description: EMSA. This is another data set of the same source.
The target of data set [5] is T1, rMDA1 (mature MDA1). Description: EMSA. This is another data set of the same source.
In data set [6] the target is T1, rMDA1 (mature MDA1). Description: EMSA. This is another data set of the same source.

In the case of “recombinant and mature MDA1 (from UniProt F4JVI3 130-493) (domain or fragment)”, the stoichiometry N in data set [1] was found to be 2.
As for GUUUUAAACAAGAGACAGAAACAAAGA (ssRNA) [3' ndhA sRNA], in the data set with rMDA1 (mature MDA1) [2], the binding result is recorded as “no binding”.

B1: psbE E5 (dsDNA)
DNA 1: TTAATTTACTTATTCATCTTTTACAGA
DNA 2: TCTGTAAAAGATGAATAAGTAAATTAA
As to B1, in the data set with rMDA1 (mature MDA1) [3], the binding result is on record as “no binding”.

B2: ndhA A10 (dsDNA)
DNA 1: TATTGGGAATCATAACAGGTGTACTAG
DNA 2: CTAGTACACCTGTTATGATTCCCAATA
As to B2, in the data set with rMDA1 (mature MDA1) [3], the binding result is recorded as “binds”.
Take UGGCUGAUAUUAUGACGAUAC (ssRNA) [5' ndhA sRNA]: the binding result with rMDA1 (mature MDA1) [2] is listed as “no binding”.
Same read-out and setting: to GUAGACUCUAAAAAUACCCUUGGUACUUU (ssRNA) [5' psbE sRNA] belongs “no binding”.
On to GAUAUGCGCGAAUUCCUGUAGAACGAACACUAGAAGAAA (ssRNA) [ssRNA random probe], for which the binding result with rMDA1 (mature MDA1) [4] is on record as “binds”.

B3: dsRNA random probe (dsRNA)
RNA 1: GAUAUGCGCGAAUUCCUGUAGAACGAACACUAGAAGAAA
RNA 2: UUUCUUCUAGUGUUCGUUCUACAGGAAUUCGCGCAUAUC
B3: the binding result in the data set with rMDA1 (mature MDA1) [5] was “no binding”.
On the same count and under the same terms, as for GATATGCGCGAATTCCTGTAGAACGAACACTAGAAGAAA (ssDNA) [ssDNA random probe], the entry is “no binding”.

B4: dsDNA random probe (dsDNA)
DNA 1: GATATGCGCGAATTCCTGTAGAACGAACACTAGAAGAAA
DNA 2: TTTCTTCTAGTGTTCGTTCTACAGGAATTCGCGCATATC
Consider B4, for which the binding result in the data set with rMDA1 (mature MDA1) [6] was “binds”.
In the case of UCUGAUUCGAGGGGGUCCCGUUGAAC (ssRNA) [3' psbJ sRNA], the binding result with rMDA1 (mature MDA1) [2] is recorded as “no binding”.

B5: psbE E4 (dsDNA)
DNA 1: ATTGACGATCTCACAAAGATGCAATCT
DNA 2: AGATTGCATCTTTGTGAGATCGTCAAT
With B5, the binding result with rMDA1 (mature MDA1) [3] is “binds”.
